According to patent publication US20120329707A1 (INDIANA UNIVERSITY RESEARCH AND TECHNOLOGY, published 2012):
Numbered stars: 1 amine (or outer) side, 2 acyl side, 3 side chain; on linkers, the order of the positions; unused ones are H or OH. Square brackets hold non-standard residues; d marks the D form. Primed or numbered codes have the meaning given here. Side chains are listed from the residue outwards. Ends that are not written are not given here. * marks the point of attachment. 40K‑TE PEG = 40 kDa PEG covalently bound via thioether, formed by reaction of the free thiol of the peptide (Cys side chain) with an iodoacetic-functionalized PEG; 40K‑TE PEG(3) = 40 kDa PEG bound to the Cys thiol via a thioether, made by reacting the free-thiol peptide with iodoacetic-functionalised PEG; 40K‑TE PEG″ = 40 kDa PEG bound to Cys via thioether made from an iodoacetyl-functionalised PEG; EDTA amide = ethylenediaminetetraacetic acid amide, O=C(O)CN(CCN(CC(=O)O)CC(=O)*)CC(=O)O; 20K‑TE PEG = 20 kDa PEG bound via thioether from iodoacetic-functioned PEG; benzoylpropionyl = benzoylpropionyl acyl group, O=C(CCC(=O)*)c1ccccc1; 12K‑ME PEG = 12 kDa PEG bound via maleimido-thioether; Acetyl(1-adamantyl) = O=C(CC12CC3CC(CC(C3)C1)C2)*; γGlu = O=C(O)[C@H](CCC(=O)[*:2])N[*:1]; Palmitoyl = CCCCCCCCCCCCCCCC(=O)*; Aib = CC(C)(N)C(=O)O

B1: peptide of SEQ ID NO: 45 (peptide)
peptide: H[Aib]QGTFTSDYSKYLDEKRA[Aib]EFVC(40K‑TE PEG)WLLDT-OH
B2: peptide of SEQ ID NO: 48 (peptide)
peptide: H[dS]QGTFTSDK([γGlu-Acetyl(1-adamantyl)])SKYLDERAAQDFVQWLLDT-NH2
modifications: N-terminus assumed
SMILES: CC(C)C[C@H](NC(=O)[C@H](Cc1ccc(O)cc1)NC(=O)[C@H](CCCCN)NC(=O)[C@H](CO)NC(=O)[C@H](CCCCNC(=O)CC[C@H](NC(=O)CC12CC3CC(CC(C3)C1)C2)C(=O)O)NC(=O)[C@H](CC(=O)O)NC(=O)[C@H](CO)NC(=O)[C@@H](NC(=O)[C@H](Cc1ccccc1)NC(=O)[C@@H](NC(=O)CNC(=O)[C@H](CCC(N)=O)NC(=O)[C@@H](CO)NC(=O)[C@@H](N)Cc1c[nH]cn1)[C@@H](C)O)[C@@H](C)O)C(=O)N[C@@H](CC(=O)O)C(=O)N[C@@H](CCC(=O)O)C(=O)N[C@@H](CCCNC(=N)N)C(=O)N[C@@H](C)C(=O)N[C@@H](C)C(=O)N[C@@H](CCC(N)=O)C(=O)N[C@@H](CC(=O)O)C(=O)N[C@@H](Cc1ccccc1)C(=O)N[C@H](C(=O)N[C@@H](CCC(N)=O)C(=O)N[C@@H](Cc1c[nH]c2ccccc12)C(=O)N[C@@H](CC(C)C)C(=O)N[C@@H](CC(C)C)C(=O)N[C@@H](CC(=O)O)C(=O)N[C@H](C(N)=O)[C@@H](C)O)C(C)C
B3: peptide of SEQ ID NO: 46 (peptide)
peptide: H[Aib]QGTFTSDYSKYLD[Aib]KRA[Aib]EFVC(40K‑TE PEG(3))WLLDGGPSSGAPPPS-NH2
B4: peptide of SEQ ID NO: 40 (peptide)
peptide: H[Aib]QGTFTSDYSKYLD[Aib]KRAKEFVQWLLDTC(40K‑TE PEG″)-NH2
B5: peptide of SEQ ID NO: 51 (peptide)
peptide: H[Aib]QGTFTSDYSKYLDEKRA[Aib]EFVC(40K‑TE PEG)WLL[Aib]GGPSSGAPPPS-NH2
B6: peptide of SEQ ID NO: 44 (peptide)
peptide: H[dS]QGTFTSDK([γGlu-Palmitoyl])SKYLDEQAAKEFIC(20K‑TE PEG)WLLDT-NH2
B7: peptide of SEQ ID NO: 38 (peptide)
peptide: H[Aib]QGTFTSDYSKYLD[Aib]KRA[Aib]EFVC(40K‑TE PEG″)WLLDT-NH2
B8: peptide of SEQ ID NO: 47 (peptide)
peptide: H[Aib]QGTFTSDYSKYLDEKRA[Aib]EFVC(40K‑TE PEG)WLLDGGPSSGAPPPS-NH2
B9: peptide of SEQ ID NO: 55 (peptide)
peptide: H[dS]QGTFTSDK(EDTA amide)SKYLDERAAQDFVQWLLDGGPSSGAPPPS-NH2
B10: peptide of SEQ ID NO: 43 (peptide)
peptide: H[dS]QGTFTSDK([γGlu-Palmitoyl])SKYLDEQAAKEFIC(12K‑ME PEG)WLLDT-NH2
B11: peptide of SEQ ID NO: 52 (peptide)
peptide: H[Aib]QGTFTSDYSKYLDEK[Aib]AKEFVC(40K‑TE PEG(3))WLLDT-NH2
B12: peptide of SEQ ID NO: 41 (peptide)
peptide: H[Aib]QGTFTSDYSKYLDEKRA[Aib]EFVC(40K‑TE PEG)WLL[Aib]T-NH2
B13: peptide of SEQ ID NO: 54 (peptide)
peptide: H[Aib]QGTFTSDYSKYLDEKRA[Aib]DFVC(40K‑TE PEG(3))WLLDT-NH2
B14: peptide of SEQ ID NO: 39 (peptide)
peptide: H[Aib]QGTFTSDYSKYLD[Aib]KRAKEFVQWLLC(40K‑TE PEG)T-OH
B15: peptide of SEQ ID NO: 42 (peptide)
peptide: H[Aib]QGTFTSDYSKYLDEKRA[Aib]EFV[Aib]WLLC(40K‑TE PEG)T-NH2
B16: peptide of SEQ ID NO: 49 (peptide)
peptide: H[dS]QGTFTSDK(benzoylpropionyl)SKYLDERAAQDFVQWLLDGGPSSGAPPPS-NH2
modifications: N-terminus assumed
SMILES: CC(C)C[C@H](NC(=O)[C@H](CC(C)C)NC(=O)[C@H](Cc1c[nH]c2ccccc12)NC(=O)[C@H](CCC(N)=O)NC(=O)[C@@H](NC(=O)[C@H](Cc1ccccc1)NC(=O)[C@H](CC(=O)O)NC(=O)[C@H](CCC(N)=O)NC(=O)[C@H](C)NC(=O)[C@H](C)NC(=O)[C@H](CCCNC(=N)N)NC(=O)[C@H](CCC(=O)O)NC(=O)[C@H](CC(=O)O)NC(=O)[C@H](CC(C)C)NC(=O)[C@H](Cc1ccc(O)cc1)NC(=O)[C@H](CCCCN)NC(=O)[C@H](CO)NC(=O)[C@H](CCCCNC(=O)CCC(=O)c1ccccc1)NC(=O)[C@H](CC(=O)O)NC(=O)[C@H](CO)NC(=O)[C@@H](NC(=O)[C@H](Cc1ccccc1)NC(=O)[C@@H](NC(=O)CNC(=O)[C@H](CCC(N)=O)NC(=O)[C@@H](CO)NC(=O)[C@@H](N)Cc1c[nH]cn1)[C@@H](C)O)[C@@H](C)O)C(C)C)C(=O)N[C@@H](CC(=O)O)C(=O)NCC(=O)NCC(=O)N1CCC[C@H]1C(=O)N[C@@H](CO)C(=O)N[C@@H](CO)C(=O)NCC(=O)N[C@@H](C)C(=O)N1CCC[C@H]1C(=O)N1CCC[C@H]1C(=O)N1CCC[C@H]1C(=O)N[C@@H](CO)C(N)=O
B17: peptide of SEQ ID NO: 13 (peptide)
peptide: H[Aib]QGTFTSDYSKYLDEKRA[Aib]EFVC(40K‑TE PEG)WLLDT-NH2

Experiments:
glucagon receptor = assay: cell-based or functional assay
GLP-1 receptor = assay: cell-based or functional assay

| Binder | EC50 (nM) at glucagon receptor (glucagon receptor) [nM] | EC50 (nM) at GLP-1 receptor (GLP-1 receptor) [nM] |
| --- | --- | --- |
| B1 | 0.651 | 1.44 |
| B2 | 0.026 | 0.039 |
| B3 | 0.227 | 0.136 |
| B4 | 1.19 | 0.653 |
| B5 | 2.04 | 0.062 |
| B6 | 0.023 | 0.017 |
| B7 | 0.141 | 0.31 |
| B8 | 0.591 | 0.052 |
| B9 | 4.34 | 0.108 |
| B10 | 0.02 | 0.011 |
| B11 | 4.5 | 0.054 |
| B12 | 0.309 | 0.074 |
| B13 | 0.939 | 0.097 |
| B14 | 0.852 | 1.28 |
| B15 | 1.01 | 0.117 |
| B16 | 0.063 | 0.01 |
| B17 | 0.141 | 0.067 |
